Measurements reported in patent publication US20030077318A1.
Like-named read-outs stand apart in the source and are kept apart here.

T1: soluble H-2K^b (K^bsol), heterodimer of truncated K^b heavy chain and murine β-2 microglobulin, purified empty from Drosophila cells (murine), P01901
T1 chain 1: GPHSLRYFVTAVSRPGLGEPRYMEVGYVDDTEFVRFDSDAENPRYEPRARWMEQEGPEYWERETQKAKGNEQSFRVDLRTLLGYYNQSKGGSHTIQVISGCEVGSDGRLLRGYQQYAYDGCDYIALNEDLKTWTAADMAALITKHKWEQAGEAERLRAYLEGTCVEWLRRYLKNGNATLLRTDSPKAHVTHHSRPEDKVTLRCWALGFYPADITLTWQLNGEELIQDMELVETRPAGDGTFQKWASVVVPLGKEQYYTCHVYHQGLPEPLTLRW
T1 chain 2: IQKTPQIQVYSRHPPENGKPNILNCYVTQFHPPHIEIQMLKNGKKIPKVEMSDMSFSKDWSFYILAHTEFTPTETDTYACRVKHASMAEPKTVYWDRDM


Columns and labels:
[1] = target: T1, soluble H-2K^b (K^bsol), heterodimer of …; test: competitive RIA against [^125I]VSV-8 on K^bsol, P30 gel filtration, 23° C.
[2] = target: T1, soluble H-2K^b (K^bsol), heterodimer of …
[3] = target: T1, soluble H-2K^b (K^bsol), heterodimer of …

Binder | Kd [1] | half-time of association [2] | Kd [3]
RGYVYQGL (modifications not checked) [VSV-8] | 3.7 nM |  | 
DLRGYVYQGL (modifications not checked) [VSV-10N] | 390 nM |  | 
RGYVYQGLKS (modifications not checked) [VSV-10C] | 21 nM |  | 
RGYVYQGL (modifications not checked) [[^125I]VSV-8] |  | 5 min | 33 nM
RGYVYQGLK (modifications not checked) [VSV-9C] | 6.9 nM |  | 
LRGYVYQGL (modifications not checked) [VSV-9N] | 7.3 nM |  | 
